Our source for the EC50 values is patent US20180118814A1.

The target of test [1] is HBsAg-L antigen (Beacle, BCL-AG-001) (hepatitis B virus). The test is described as follows: ELISA, plate coated with 1 µg/mL HBsAg-L, anti-human kappa-HRP detection, cell culture supernatant.
Test [2] shares this target. The experiment in a line: ELISA, plate coated with 1 µg/mL HBsAg-L, anti-human kappa-HRP detection, purified protein.

B1: HBV24G (antibody, human IgG1, kappa, V domains shown)
VH: QVQLVQSGAEVKAPGASVKVSCKASGYTFTSAWMNWVRQAPGQGLEWMGRIYPSGGSTSYAQKFQGRVTMTADKSTSTVYMELSSLRSEDTAVYYCAREYRVARWGQGTLVTVSS
VL: DIVMTQTPLSLSVTPGQPASISCKSSQSLLYSNGKTYLNWLLQKPGQPPQRLIYLVSNRDSGVPDRFSGSGSGTDFTLKISRVEAEDVGVYYCVQGTHFPQTFGGGTKVEIKR
As to B1, the figures for the EC50 in test [1] and in test [2] were 0.057 nM and 0.061 nM, respectively.
